Laboratory results: PMC4117426

Biological target: T1, 6×His-SlmA (E. coli), P0C093
T1 chain: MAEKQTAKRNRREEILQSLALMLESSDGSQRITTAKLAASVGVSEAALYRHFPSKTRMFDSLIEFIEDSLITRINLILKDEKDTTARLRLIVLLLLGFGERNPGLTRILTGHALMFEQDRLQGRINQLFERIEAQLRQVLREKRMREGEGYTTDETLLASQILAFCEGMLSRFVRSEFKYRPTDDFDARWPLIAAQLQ
Assay: BLI; biotinylated SBS17-30mer (50 nM) on streptavidin tips, loaded with 4 µM SlmA or SlmA mutant; FtsZ or variants (4 µM, preincubated with 1 mM GDP) or peptides (up to 320 µM) in solution; 1× Pol buffer, room temperature
Settings: remark: other sources report otherwise

- Kd: 81 µM
Binder: DYLDIPAFLRKQAD [FtsZ C-terminal tail peptide (Ztail-WT)]
